Each block holds one binder with its values, some of them ahead of it.
What was measured:
human FRα R147H = molecular target: T1, human FRα R147H (human, UniProt P15328 25-234); assay: flow cytometry, transfected HEK293T cells (data not shown)
T1 construct: The entry is the mutant itself
Outline: (§1)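 HEK293T cells were transfected with single-residue mutants of human folate receptor alpha. Binding was measured by flow cytometry with each VHH at 200 nM. VHHs were detected with a mouse anti-His tag antibody followed by an anti-mouse phycoerythrin antibody. Untransfected cells served as negative control.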

human FRα Y150H = molecular target: T2, human FRα Y150H (human, UniProt P15328 25-234); assay: as above
T2 construct: The entry is the mutant itself
Outline: as §1

human FRα E140Q = molecular target: T3, human FRα E140Q (human, UniProt P15328 25-234); assay: as above
T3 construct: The entry is the mutant itself
Outline: as §1

human FOLR1/2 chimera 2 = human FOLR1/2 chimera 2 (human, UniProt P15328 25-234); assay: flow cytometry, transfected HEK293T cells
Experimental: (§2) Chimera 1 SEQ ID No. 67) and 7 ^{∘}Ch7; SEQ ID No. 73) also contain an additional residue change at a separate location. […] HEK293T cells were transfected with hFOLR1, hFOLR2, one of the hFOLR1/2 chimeric constructs ^{∘}FIG. 2B) or single residue mutants ^{∘}FIG. 2C). Binding of VHHs 2HFO19, 2HFO42, 3MFR60, and a mouse anti-FOLR1 monoclonal antibody ^{∘}mAb) was detected using a mouse anti-His tag antibody for the VHHs followed by an anti-mouse-phycoerythrin antibody. All VHHs were tested at a concentration of 200 nM and untransfected cells were used as a negative control. The colors used for the VHHs represent the different CDR3 families; blue: family 1, green: family 3, grey: family 10.
(§3) To identify the exact region in which the VHHs bind to FRα, epitope mapping experiments were performed. Since the VHHs are able to bind human FRα, but not FRβ, we generated seven human FOLR1/2 chimeric constructs where regions of human FOLR1 were replaced by the corresponding human FOLR2 ^{∘}FRβ) regions ^{∘}FIG. 2A): chimera 1 SEQ ID No. 67), chimera 2 ^{∘}SEQ ID No. 68), chimera 3 ^{∘}SEQ ID No. 69), chimera 4 ^{∘}SEQ ID No. 70), chimera 5 ^{∘}SEQ ID No. 71), chimera 6 ^{∘}SEQ ID No. 72) and chimera 7 ^{∘}SEQ ID No. 73). Three additional chimera 1 constructs were made: chimera 1a ^{∘}replacing fragment 31-40; SEQ ID No. 74), chimera 1b ^{∘}replacing fragment 41-50; SEQ ID No. 75) and chimera 1c ^{∘}replacing fragment 51-64; SEQ ID NO. 76). The constructs were transiently transfected into HEK293T cells and dose-dependent binding of the VHHs to the wild-types FRα and FRβ ^{∘}WTs) or the chimeric constructs was assessed via flow cytometry via detection of the tag ^{∘}FIG. 2B). […] Different anti-FRα VHHs were able to bind to cell-expressed FRα-FRβ chimeras to a similar level as WT FRα, with the exception of chimera 4 ^{∘}SEQ ID No. 70) where the binding was completely abolished for all VHHs.

human FOLR1/2 chimera 1 = molecular target: T4, human FOLR1/2 chimera 1 (human, UniProt P15328 25-234); assay: flow cytometry, transfected HEK293T cells
T4 construct: on transfected HEK293T cells
Experimental: as §2, §3

[1] = molecular target: T5, human FOLR1/2 chimera 1b (replacing fragment 41-50) (human, UniProt P15328 25-234); assay: flow cytometry, transfected HEK293T cells
T5 construct: Transiently expressed on HEK293T cells
Experimental: as §2, §3

[2] = molecular target: T6, mouse folate receptor alpha expressed on transfected HEK293T cells (mouse, UniProt P35846 25-232); assay: flow cytometry on HEK293T cells overexpressing mouse FOLR1, His tag detection, PE MFI, non-linear fit
T6 construct: also called cell-expressed mouse FRα
Experimental: Data were normalized and technical replicates were plotted as mean±SD. Data were fitted by non-linear regression and the half-maximal effective concentration ^{∘}EC50) was calculated using GraphPad Prism 9 software. ^{∘}FIG. 1C and FIG. 1D) Binding affinity determination of anti-FOLR1 VHHs for native FOLR1. Mouse ^{∘}FIG. 1C) or human FOLR1 FIG. 1D) was overexpressed on HEK293T cells and binding of the anti-FOLR1 VHHs was assessed using flow cytometry. The mean fluorescence intensity ^{∘}MFI) of the phycoerythrin signal was plotted for each VHH concentration. Data were fitted by non-linear regression using GraphPad Prism 9 software. ^{∘}FIG. 1E) Determination of the competition of representative family members with folic acid ^{∘}FA) using ELISA. Mouse FOLR1 was coated on the plate and was pre-incubated with or without 100 μM FA before adding the VHHs. Data were fitted by non-linear regression using GraphPad Prism 9 software.

[3] = molecular target: T7, mouse folate receptor alpha (mFRα), recombinant protein (mouse, UniProt P35846 25-232); assay: BLI, FRα on AR2G biosensors, 1:1 model
T7 construct: Bought recombinant proteins (e.g. biotinylated, Acro Biosystems FO1-M82E9); also called mFOLR1; Ms FOLR1
Experimental: (§4) As a next step, the kinetic binding constants were determined using BLI ^{∘}Table 3). […] Similar to the ELISA results ^{∘}FIG. 1A-B), higher binding affinities were measured for mouse FRα than human FRα, with KD values […] one order of magnitude in most cases. […] For 3HFO28, binding to human FRα could not be confirmed by BLI, and this VHH was excluded from further characterization.
(§5) The kinetic parameters were calculated using a 1:1 binding model.

[4] = molecular target: T8, human folate receptor alpha (hFRα), recombinant protein (human, UniProt P15328 25-233); assay: BLI, FRα on AR2G biosensors, 1:1 model
T8 construct: Bought recombinant proteins (His-tagged, or biotinylated via Avi-tag, e.g. AcroBiosystems FO1-H82E2, F01-H52H1); also called hFOLR1; huFOLR1
Experimental: as §4, §5

[5] = molecular target: T7, mouse folate receptor alpha (mFRα), …; assay: BLI, periplasmic extract, FRα on AR2G biosensors
Experimental: (§6) After panning of core76/77 on human and mouse folate receptor alpha ^{∘}FRα), […] were randomly selected from the second and third rounds and analyzed by ELISA on both human and mouse FRα for the presence of FRα-specific VHHs in their periplasmic extracts ^{∘}PE). This led to the identification of 98 hits. For these 98 hits, the off-rate ^{∘}koff) in the PE was determined by biolayer interferometry ^{∘}BLI) on both mouse and human FRα that was directly immobilized onto AR2G biosensors. The off-rates were calculated using a 1:1 binding model. […] Abbreviations: SE: standard error.

[6] = molecular target: T8, human folate receptor alpha (hFRα), …; assay: BLI, periplasmic extract, FRα on AR2G biosensors
Experimental: as §6

T8 sequence (P15328 25-233 limits assumed): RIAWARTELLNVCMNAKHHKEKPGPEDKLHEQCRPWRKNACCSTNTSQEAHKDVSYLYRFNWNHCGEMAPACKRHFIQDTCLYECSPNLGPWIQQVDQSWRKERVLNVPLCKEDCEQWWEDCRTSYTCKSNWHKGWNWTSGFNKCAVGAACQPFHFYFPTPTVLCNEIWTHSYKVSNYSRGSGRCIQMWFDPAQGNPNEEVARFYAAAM
Chain of human FOLR1/2 chimera 2 (P15328 other isoform, or with tags, fused parts or gaps mutant limits assumed): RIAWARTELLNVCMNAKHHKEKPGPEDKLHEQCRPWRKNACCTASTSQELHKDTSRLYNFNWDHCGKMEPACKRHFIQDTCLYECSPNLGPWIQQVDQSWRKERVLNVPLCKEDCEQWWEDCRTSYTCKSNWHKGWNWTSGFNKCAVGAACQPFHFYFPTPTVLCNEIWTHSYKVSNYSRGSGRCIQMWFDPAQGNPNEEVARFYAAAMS
T3 sequence (P15328 25-234 E140Q limits assumed): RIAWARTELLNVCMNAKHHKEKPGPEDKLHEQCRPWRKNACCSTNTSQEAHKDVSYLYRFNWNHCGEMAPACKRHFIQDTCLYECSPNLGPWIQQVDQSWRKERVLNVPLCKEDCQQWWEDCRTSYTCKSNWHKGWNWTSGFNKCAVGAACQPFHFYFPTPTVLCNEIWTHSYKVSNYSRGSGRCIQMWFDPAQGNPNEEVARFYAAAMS
T2 sequence (P15328 25-234 Y150H limits assumed): as the sequence (P15328 25-234 E140Q limits assumed) above, with Q116E, Y126H counted along it
T6 sequence (P35846 25-232 limits assumed): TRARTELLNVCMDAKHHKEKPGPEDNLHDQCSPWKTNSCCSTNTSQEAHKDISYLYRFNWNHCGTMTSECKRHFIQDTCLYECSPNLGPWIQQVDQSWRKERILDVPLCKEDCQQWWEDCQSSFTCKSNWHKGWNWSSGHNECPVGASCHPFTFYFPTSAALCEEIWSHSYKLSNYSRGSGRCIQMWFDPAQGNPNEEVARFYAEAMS
T7 sequence (P35846 25-232 limits assumed): as above
T4 sequence (P15328 other isoform, or with tags, fused parts or gaps mutant limits assumed): as the sequence (P15328 25-234 E140Q limits assumed) above, with E8D, N15D, E21T, E31D, R34S, R37K, Q116E, P192S counted along it
T5 sequence (P15328 other isoform, or with tags, fused parts or gaps mutant limits assumed): as the sequence (P15328 25-234 E140Q limits assumed) above, with E21T, Q116E counted along it
T1 sequence (P15328 25-234 R147H limits assumed): as the sequence (P15328 25-234 E140Q limits assumed) above, with Q116E, R123H counted along it

- binding result (human FRα R147H): binds
- binding result (human FRα Y150H): binds
- binding result (human FRα E140Q): binds
- binding result (human FOLR1/2 chimera 2): binds
- binding result (human FOLR1/2 chimera 1): binds
- binding result [1]: binds
- EC50 [2]: 1.2 nM
- Kd [3]: 23.8 nM
- koff [3]: 0.00467 s⁻¹
- kon [3]: 203000 M⁻¹ s⁻¹
- Kd [4]: 274 nM
- koff [4]: 0.0276 s⁻¹
- kon [4]: 101000 M⁻¹ s⁻¹
- koff [5]: 0.00881 s⁻¹
- koff [6]: 0.0266 s⁻¹
B1: VHH 2HFO42 (family 3) (VHH)
VHH: QVQLQESGGGLVQAGGSLRLSCAASGSGFSGMIMGWYRQVPGKQRELVATVTSHGTTNYADSVKGRFTISRDNAKNTVLLQMNSLKPEDTAVYYCNAHFPGIYWGKGTQVTVSS
notes: also called 2HF042; Nb42

- binding result (human FRα R147H): binds
- binding result (human FRα Y150H): binds
- binding result (human FRα E140Q): binds
- binding result (human FOLR1/2 chimera 2): binds
- binding result (human FOLR1/2 chimera 1): binds
- binding result [1]: binds
- EC50 [2]: 1.4 nM
- Kd [3]: 2.97 nM
- koff [3]: 0.00393 s⁻¹
- kon [3]: 1.32e+06 M⁻¹ s⁻¹
- Kd [4]: 63.7 nM
- koff [4]: 0.0149 s⁻¹
- kon [4]: 233000 M⁻¹ s⁻¹
- koff [5]: 0.00279 s⁻¹
- koff [6]: 0.013 s⁻¹
B2: VHH 2HFO19 (family 1) (VHH)
VHH: QVQLQESGGGLVQPGGSLRVSCAASGFPFSTVYMSWVRQAPGKGLEWVSGINNDGGVIDYADSVKGRFTISRDNAKNTLYLQLNSLKPEDTALYFCARGRSFVATLSSSLRGQGTQVTVSS
notes: also called Nb19

- binding result (human FRα R147H): binds
- binding result (human FRα Y150H): binds
- binding result (human FRα E140Q): binds
- binding result (human FOLR1/2 chimera 2): binds
- binding result (human FOLR1/2 chimera 1): binds
- binding result [1]: binds
- EC50 [2]: 1.5 nM
- Kd [3]: 2.59 nM
- koff [3]: 0.00297 s⁻¹
- kon [3]: 1.15e+06 M⁻¹ s⁻¹
- Kd [4]: 169 nM
- koff [4]: 0.159 s⁻¹
- kon [4]: 938000 M⁻¹ s⁻¹
- koff [5]: 0.00287 s⁻¹
- koff [6]: 0.0449 s⁻¹
B3: VHH 3MFR60 (family 10) (VHH)
VHH: QVQLQESGGGLVQAGGSLRVSCAASGIIFSMNGMGWFRQAPGKQRELVASITSGGSTKYADSVKGRFTISRDNAKNTVYLQMNSLKPEDTAVYYCNIQFGSRWSTYWGQGTQVTVSS

Source: patent publication US20250304677A1 (VIB VZW, published 2025)
